Literature values in paper doi:10.1101/2022.02.18.481064.

Biological target: Cys106 (UniProt position 106, LIAAICAGPTA)
Settings: Reduced Cys106 thiol/thiolate is implied. The state is otherwise not stated.

For “DJ-1 (Parkinson disease protein 7, PARK7) (Homo sapiens)”, the pKa is given as 5.4.
